Results on 30 sequences are retold here after the nanobody polyreactivity screen of Harvey et al. (2022).

The series is described as follows: yeast display, Sf9 membrane polyspecificity reagent, FACS + sequencing; frameworks hold sequencing errors. The procedure, abridged:
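Nanobodies came from a synthetic yeast display library in Saccharomyces cerevisiae BJ5465, induced with galactose for 36–48 hours and stained for 1 hour at 4 °C with 10% biotinylated, detergent-solubilized Sf9 membrane reagent. Cells were enriched on streptavidin microbeads and then FACS-sorted, with low and high (top ~1%) gates set on anti-HA fluorescence for expression and streptavidin fluorescence for reagent binding. Each polyreactivity label reflects the gate a clone came from. Genes were amplified by colony PCR, sequenced by MiSeq 2 × 250 and filtered by CDR length.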
With “QVQLVESGGGLVQAGGSLRLSCAASGSTLGFNAMGWYRQAPGKEREFVAGISASGSSTYYADSVKGRFTISRDNAKNTVYLQMNSLKPEDTAVYYCAARASGGPYWSRGKYWGQGTQVTVSS”, the “polyreactivity (PSR sort gate)” value is listed as “high polyreactivity”.
With “QVQLVESGGGLVQAGGSLRLSCAASGSTLGVNAMGRYRQAPGKEREFVAAITGRGGNSYYADSVKGRFTISRDNAKNTVYLKMNSLKPEDTAVYYCAAERQPYRTSSYNYWGQGSQVTVSS”, the “polyreactivity (PSR sort gate)” value is listed as “high polyreactivity”.
With “QVQLVESGGGLVQAGGSLRLSCAASGSTLGVYAMGWYRQAPGTERELVAAISSGGSTTYADSVKGRFTISRDNEKNTVYLQMNSLKPEDTAVYYCAADRYEGYVTWYWWGAYNYDYWGQGTQVTVSS” the entry was “high polyreactivity”; with “QVQLVESGGGLVQAGGSLRLSCAASGSTLGVYVMGWYRPAPGKERELVAAISRNGGSTYYADSVKGRFTISRDNAMNTVYLQMNSLKPEDTAVYYCAARTVGRKAGFDYWGQGTQVTVSS”, “high polyreactivity”; with “QVQLVESGGGLVQAGGSLRLSCAASGSTLGYYAMGWYRQAPGKERELVAAIRYSDGNTYYADSVKGRFTISRDNAKNTVYLQMNSLKPEDTAVYYCAARRGRSFRGVFYPFEYWGQGTQVTVSS”, “high polyreactivity”.
With “QVQLVESGGGLVQAGGSLRLSCAASGSTLGYYTMGWYRQAPGKERELVAAISGSGVTTSYADSVKGRFTISRDTAKNTVYLQMNSLKPEDTAVYYCARRYRVGTTGGDYWGQGTQVTVSS” the entry was “high polyreactivity”; with “QVQLVESGGGLVQAGGSLRLSCAASGSTLIANAMGWYRQAPGKERELVAGITYRGGDITTYADSVKGSFTNSSDNANNTVYLQINTLKPEDTAVYYCAAPVVWPTWARGGYWGQGTQVTVSS”, “low polyreactivity”.
As to “QVQLVESGGGLVQAGGSLRLSCAASGSTLIIYAMGWYRQAPGKERELVATISWSGGNTYYADSVKGRFTISRDNAKYTVYLQMNSLKPEDTAVYYCAARWYYYPLLYDYWGQGTQVTVSS”, the “polyreactivity (PSR sort gate)” value is “low polyreactivity”.
Take “QVQLVESGGGLVQAGGSLRLSCAASGSTLIRNVMGWYRQAPGKESELDAAITWSGASTYYADSVKGRFTISRDNAKNTVYLQMNSLKPEDTAVYYCAARALNWSRVARYNYWGQGTQVTVSS”: the “polyreactivity (PSR sort gate)” value was “high polyreactivity”.
With “QVQLVESGGGLVQAGGSLRLSCAASGSTLITNDMGWYRQAPGKERELVATITYGTGSTYYADSVKGRFTISRDNAKNTVYLQMNSLKPEDTAVYYCNARRNYPKDSDGYDYWGQGTQVTVSS” the entry was “low polyreactivity”; with “QVQLVESGGGLVQAGGSLRLSCAASGSTLLIYVMGWYRQAPGKERELVAAISKRSGSTYYADSVKGRFTISRDNAKNTVYLHMNSLKPEDTAVYYCATRPYVRWYDYWGQATQVTVSS”, “high polyreactivity”.
The entry for “QVQLVESGGGLVQAGGSLRLSCAASGSTLLTYTMGWYRQAPGKERELVASITTSGGSTYYADSVKGRFTSSRDNAKNTVYLQMNSLKPEDTAVYYWGQGTQVTVSS” is “low polyreactivity”; for “QVQLVESGGGLVQAGGSLRLSCAASGSTLLWNTMGWYRQAPGKERELVAAISITGSTNYADSVKGRFTISRDNEKNTVYLQMNSLKPEDTAVYYCAAPYGLPWWYGSWGQGTQVTVSS” it is “low polyreactivity”.
In the case of “QVQLVESGGGLVQAGGSLRLSCAASGSTLNRNVMGWSRQAPGKERQMVAVITYGVGSTYYADSVKGRFTISRDNAKNTHYIQMNSLKPEDTAVYYCNKDPLVFDYWGQGTQVTVSS”, the “polyreactivity (PSR sort gate)” value is listed as “low polyreactivity”.
With “QVQLVESGGGLVQAGGSLRLSCAASGSTLNYYAMGWYRQAPGKERELVATIDKSGGSTRYADSVKGRFTISRDNAKNTVYLQMNSLKPEDTAVYYCAVDSPYQHDDYWGQGTQVTVSS” the entry was “low polyreactivity”; with “QVQLVESGGGLVQAGGSLRLSCAASGSTLPTNAMLWYRQAPGKEREFVAAISDNGGSTYYADSVKGRFTISRDNAKNTVYLQMNSLKPEDTAVYYCAADNFGPEFYYWGQGTQVTVSS”, “low polyreactivity”.
As for “QVQLVESGGGLVQAGGSLRLSCAASGSTLPYYAMGWYRQAPGKERELVAAITSSGGDTYYADSVKGRFTISRDNAKNTVYFQMNSLKPEDTAVYYCAKSYSARSTVRKLFYFAYDYWGQGTQVTVSS”, the “polyreactivity (PSR sort gate)” value is recorded as “low polyreactivity”.
With “QVQLVESGGGLVQAGGSLRLSCAASGSTLPYYAMGWYRQAPGKEWELVAAITSSGGDTYYADSVKGRFTISRDNAKNTVYLQMNSLKTEDTAVYYCAKSYSARSTVRKLFYFAYDYWGQGTQVTVSS” the entry was “low polyreactivity”; with “QVQLVESGGGLVQAGGSLRLSCAASGSTLQNNAMGRYRQAPGKERELVAAISVSDGITYYADSVKGRFTISRDNAKNTVYLQMNSLKPEDTAVYSFAADYSSPWQAVQGDDYWGQGTQVTVSS”, “low polyreactivity”.
Turning to “QVQLVESGGGLVQAGGSLRLSCAASGSTLQRYAMGWYRQAPGKEREFVAAINWSGSNTYYADSVKGRFTISRDNAKNTVYLQMNSLKPEDTAVYYCATNTWLFGGNYWGQGTQVTVSS”, the “polyreactivity (PSR sort gate)” value is reported as “high polyreactivity”.
The entry for “QVQLVESGGGLVQAGGSLRLSCAASGSTLQSYAMGWYSQAPGKERELVAGIRISGGNTRYADSVKGRFTISRDNAKNTVYLQMNSLKPEDTAVYYCAALTGFYNLRPYGYWGQGTQVTVSS” is “high polyreactivity”.
With “QVQLVESGGGLVQAGGSLRLSCAASGSTLRAYAMGWYRQAPGKERELVAAITRRGGSTSYADSVKGRFTISRDNAKNTVYLQMNSLKPEDTAVYYCARVVVTRHPKSIEYDYWGQGTQVTVSS” the entry was “high polyreactivity”; with “QVQLVESGGGLVQAGGSLRLSCAASGSTLRGNAMGWYRPAPGKERELVAAITGRGTRTYYADSVKGRFTISRDNAKNTVYLQMNSLKPEDTAVYYCAAKGRLYPGWEYYYWGQGTQVTVSS”, “high polyreactivity”.
“QVQLVESGGGLVQAGGSLRLSCAASGSTLRPYGMGWYRQATGKERELVPTIRSSSGRTYYADSVKGRFTISRDNAKNTVYLLMNSLKPDDTAVYYCNAKYVWYTQRDAYIYDYWGQGTQVTVSS”: the “polyreactivity (PSR sort gate)” value is reported as “high polyreactivity”.
Turning to “QVQLVESGGGLVQAGGSLRLSCAASGSTLRRNAMGWYRPAPGKERELVAAISGTGGSTYYADSVKGRFTISRDNAKNTVYLQMNSLKPEDTAVYYCAATGWYYDYDYWGQGTQVTVSS”, the “polyreactivity (PSR sort gate)” value is recorded as “low polyreactivity”.
For the sequence “QVQLVESGGGLVQAGGSLRLSCAASGSTLRRYAMGWSRQAPGKERELVAAISGSGDSTYYADSVKGRFTISRDNAKNTVYLQMNSLKPEDTAVYYCNAVYAFNGYDYWGQGTQVTVSS”, the “polyreactivity (PSR sort gate)” value is “low polyreactivity”.
With “QVQLVESGGGLVQAGGSLRLSCAASGSTLRRYAMGWYRQAPGKERELVAAISGSGDSTYYADSVKGRFTISRDIAKNTVYLQMNSLKPEDTAVYYCNAVYAFNGYDYWGQGTQVTVSS” the entry was “low polyreactivity”; with “QVQLVESGGGLVQAGGSLRLSCAASGSTLRSYAMGWYRQAPGKERELVAAIDWDGGRTYYADSVKGRFTISRDNAKNTVYLQMNSLKPEDTAVYYCNTSAGWSNGKDEGDFYSGFDYWGQGTQVTVSS”, “low polyreactivity”; with “QVQLVESGGGLVQAGGSLRLSCAASGSTLRYNTMGWYRQAPGTERELVAAIRGSGSSTYYADSVKGRFTISRDNAKNTVYLQMNSLKPEDTAVYYCAARPRWYTYTRQEYDYWGQGTQVTVSS”, “high polyreactivity”.
As for “QVQLVESGGGLVQAGGSLRLSCAASGSTLSDKSIGWYRQAPGKEMELVASISWSGGTYYADSVKGRFTISRDNAKNTVYLQMNSLKPEDTAVYYCAAYIYYNYSRQYLYDYWGQGTQVTVSS”, the “polyreactivity (PSR sort gate)” value was “low polyreactivity”.
